Assay results reported in patent US20200247894A1 (Regeneron, published 2020).
Numbering of substitutions follows the chain as printed.

How the values were obtained:
[1] = target: T1, D1 domain of human IL-2Rγ extracellular domain expressed with a C-terminal myc-myc-hexahistidine tag (human); experiment: SPR, mAb captured on anti-hFc, 25 C
T1 construct: also called human IL2Rγ domain 1
T1 chain: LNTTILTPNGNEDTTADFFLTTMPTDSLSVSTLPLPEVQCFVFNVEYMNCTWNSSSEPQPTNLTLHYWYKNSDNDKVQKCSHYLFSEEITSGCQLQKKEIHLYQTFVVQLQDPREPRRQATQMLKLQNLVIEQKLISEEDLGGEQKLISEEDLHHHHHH
How it was run: (§1)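 HBS-ET running buffer (10 mM HEPES, 150 mM NaCl, 3 mM EDTA, 0.05% Tween-20, pH 7.4). mAb capture via anti-human Fc. Dissociation monitored 8-10 min. 1:1 kinetic fit; KD, t1/2 derived from ka/kd.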

[2] = target: T2, human IL2Rγ (endogenously expressed on cells) (human, UniProt P31785 23-369); experiment: cell-based or functional assay
T2 sequence (looked up): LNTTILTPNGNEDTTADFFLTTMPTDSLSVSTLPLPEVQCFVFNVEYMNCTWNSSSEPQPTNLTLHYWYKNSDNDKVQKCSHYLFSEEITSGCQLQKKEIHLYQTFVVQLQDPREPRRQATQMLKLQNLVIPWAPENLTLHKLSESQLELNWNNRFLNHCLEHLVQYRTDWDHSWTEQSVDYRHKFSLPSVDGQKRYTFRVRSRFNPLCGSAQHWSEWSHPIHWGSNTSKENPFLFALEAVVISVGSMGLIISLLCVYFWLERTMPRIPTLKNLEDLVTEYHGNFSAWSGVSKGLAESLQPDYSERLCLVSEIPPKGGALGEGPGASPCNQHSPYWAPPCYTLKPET

[3] = target: T3, D2 domain of human IL2Rγ extracellular domain expressed with a C-terminal myc-myc-hexahistidine tag (human); experiment: SPR, mAb captured on anti-hFc, 37 C
T3 construct: also called human IL2Rγ domain 2
T3 chain: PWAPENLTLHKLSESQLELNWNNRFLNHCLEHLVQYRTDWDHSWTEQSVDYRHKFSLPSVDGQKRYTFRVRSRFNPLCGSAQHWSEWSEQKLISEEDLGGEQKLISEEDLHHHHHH
Method: (§2) Equilibrium dissociation constants (KD values) for IL-2Rγ binding to purified anti-IL2Rγ monoclonal antibodies were determined using a Biacore 4000 instrument equipped with a real-time surface plasmon resonance biosensor. All binding studies were performed in 10 mM HEPES, 150 mM NaCl, 3 mM EDTA, and 0.05% v/v Surfactant Tween-20, pH 7.4 (HBS-ET) running buffer at 25° C. and 37° C. The Biacore sensor surface was first derivatized by amine coupling with a monoclonal mouse anti-human Fc antibody (GE, # BR-1008-39) to capture anti-IL2Rγ monoclonal antibodies.

[4] = target: T1, D1 domain of human IL-2Rγ extracellular …; experiment: SPR, mAb captured on anti-hFc, 37 C
How it was run: as §1

[5] = target: T3, D2 domain of human IL2Rγ extracellular …; experiment: SPR, mAb captured on anti-hFc, 25 C
Method: as §2

B1: H4H12884P (antibody, human IgG4 S228P, kappa, V domains shown)
VH: QVQLQESGPGLVKPSQTLSLTCTVSGGSISSGGYYWSWIRQHPGKGLEWIGFIYYSGKTYYNPSLKSRLTISVDTSKSQFSLKLRSVTAADTAVYYCARLGYTNSAGWFDPWGQGTLVTVSS
VL: DIQMTQSPSSLSASVGDRVTITCRASQSISSYLNWYQQKPGKAPNLLIYAASSLQSGVPSRFSGSGSGTDFTLTISSLQPEDLATYYCQQSYTTPFTFGPGTKVDIKR
notes: human IgG4
100 nM Ag Bound [1]: 51 RU
Kd [1]: 11.8 nM
koff [1]: 0.00196 s⁻¹
kon [1]: 166000 M⁻¹ s⁻¹
t½ [1]: 6 min
IC50; IL-7 50 pM; NK92/hIL7R/STAT3-luc [2]: 2.3e-09 M
Max Inhibition (%); IL-2 30 pM; NK92/hIL7R/STAT3-luc [2]: 13%
Max Inhibition (%); IL-4 250 pM; Ramos.2G6.4C10/STAT3-luc [2]: 19%
Max Inhibition (%); IL-7 50 pM; NK92/hIL7R/STAT3-luc [2]: 34%
100 nM Ag Bound [3]: 2 RU
100 nM Ag Bound [4]: 32 RU
Kd [4]: 32.9 nM
koff [4]: 0.00442 s⁻¹
kon [4]: 134000 M⁻¹ s⁻¹
t½ [4]: 2.6 min
100 nM Ag Bound [5]: 1 RU
binding result [5]: no binding (tested: 100 nM)

B2: H4H12890P (antibody, human IgG4 S228P, kappa, V domains shown)
VH: EVQLVESGGGLVQPGGSLRLSCAASGFTFNNYAMHWVRQAPGKGLEYVSSISSSGGSTYYEDSVKGRFTISRDNSKNTLYLQMGSLRAEDMAVYYCARSFYGSGTYYDTFDMWGQGTMVTVSS
VL: B1 VL with V15I, S31R, N45K, G64A, L83F, T93S, P100Q, V104L, D105E
notes: human IgG4
100 nM Ag Bound [1]: 1 RU
binding result [1]: no binding (tested: 100 nM)
IC50; IL-4 250 pM; Ramos.2G6.4C10/STAT3-luc [2]: > 1e-07 M
IC50; IL-7 50 pM; NK92/hIL7R/STAT3-luc [2]: > 1e-07 M
Max Inhibition (%); IL-2 30 pM; NK92/hIL7R/STAT3-luc [2]: 15%
Max Inhibition (%); IL-4 250 pM; Ramos.2G6.4C10/STAT3-luc [2]: 54%
Max Inhibition (%); IL-7 50 pM; NK92/hIL7R/STAT3-luc [2]: 66%
Max Inhibition (%); IL-9 20 pM; NK92/hIL7R/STAT3-luc [2]: 36%
Max Inhibition (%); IL-15 60 pM; NK92/hIL7R/STAT3-luc [2]: 35%
100 nM Ag Bound [3]: 1 RU
100 nM Ag Bound [4]: 2 RU
100 nM Ag Bound [5]: -1 RU

B3: H4H12886P (antibody, human IgG4 S228P, kappa, V domains shown)
VH: EVQLVESGGGLVKPGGSLRLSCAASGFTFSTAWMSWVRQSPGRGLEWVGRMKSKTDGGTTFYAAPVKGRFTISRDDSKNTLYLQMNSLKTEDTAVYYCTTGLVPAFYKYYGVDVWGQGTTVTVSS
VL: DIQMTQSPSSLSASVGDRITITCQASQDITNYLNWYQQKPGKAPNLLIYDASNLVTGVPSRFSGSGSGTDFTFTILSLQPEDIATYYCQQYDSLLTFGPGTKVDIKR
notes: human IgG4
100 nM Ag Bound [1]: 0 RU
IC50; IL-4 250 pM; Ramos.2G6.4C10/STAT3-luc [2]: > 1e-07 M
IC50; IL-7 50 pM; NK92/hIL7R/STAT3-luc [2]: > 1e-07 M
IC50; IL-9 20 pM; NK92/hIL7R/STAT3-luc [2]: > 1e-07 M
IC50; IL-15 60 pM; NK92/hIL7R/STAT3-luc [2]: > 1e-07 M
Max Inhibition (%); IL-2 30 pM; NK92/hIL7R/STAT3-luc [2]: 27%
Max Inhibition (%); IL-4 250 pM; Ramos.2G6.4C10/STAT3-luc [2]: 92%
Max Inhibition (%); IL-7 50 pM; NK92/hIL7R/STAT3-luc [2]: 81%
Max Inhibition (%); IL-9 20 pM; NK92/hIL7R/STAT3-luc [2]: 84%
Max Inhibition (%); IL-15 60 pM; NK92/hIL7R/STAT3-luc [2]: 64%
Max Inhibition (%); IL-21 5 pM; NK92/hIL7R/STAT3-luc [2]: 18%
100 nM Ag Bound [3]: 26 RU
Kd [3]: 11.4 nM
koff [3]: 0.000377 s⁻¹
kon [3]: 33100 M⁻¹ s⁻¹
t½ [3]: 31 min
100 nM Ag Bound [4]: 0 RU
binding result [4]: no binding (tested: 100 nM)
100 nM Ag Bound [5]: 35 RU
Kd [5]: 0.535 nM
koff [5]: 0.000148 s⁻¹
kon [5]: 276000 M⁻¹ s⁻¹
t½ [5]: 78 min

B4: H4H12913P2 (antibody, human IgG4 S228P, kappa, V domains shown)
VH: EVQLVESGGGVVRPGGSLRLSCAASGFTFDDYGMSWVRQAPGKGLEWISSINRNGGSADYADSVKGRFTISRDNAKNSLFLQMSSLRAEDTALYHCASGEFRFDYWGQGTLVTVSS
VL: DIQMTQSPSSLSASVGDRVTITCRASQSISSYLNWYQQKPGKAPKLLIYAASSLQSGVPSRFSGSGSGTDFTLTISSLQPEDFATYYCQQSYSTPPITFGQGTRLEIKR
notes: human IgG4
100 nM Ag Bound [1]: 0 RU
binding result [1]: no binding (tested: 100 nM)
IC50; IL-4 250 pM; Ramos.2G6.4C10/STAT3-luc [2]: > 1e-07 M
IC50; IL-7 50 pM; NK92/hIL7R/STAT3-luc [2]: > 1e-07 M
IC50; IL-9 20 pM; NK92/hIL7R/STAT3-luc [2]: > 1e-07 M
IC50; IL-15 60 pM; NK92/hIL7R/STAT3-luc [2]: > 1e-07 M
Max Inhibition (%); IL-2 30 pM; NK92/hIL7R/STAT3-luc [2]: 24%
Max Inhibition (%); IL-4 250 pM; Ramos.2G6.4C10/STAT3-luc [2]: 55%
Max Inhibition (%); IL-7 50 pM; NK92/hIL7R/STAT3-luc [2]: 77%
Max Inhibition (%); IL-9 20 pM; NK92/hIL7R/STAT3-luc [2]: 57%
Max Inhibition (%); IL-15 60 pM; NK92/hIL7R/STAT3-luc [2]: 58%
100 nM Ag Bound [3]: 16 RU
Kd [3]: 12.7 nM
koff [3]: 0.00337 s⁻¹
kon [3]: 266000 M⁻¹ s⁻¹
t½ [3]: 3.4 min
100 nM Ag Bound [4]: 1 RU
100 nM Ag Bound [5]: 37 RU
Kd [5]: 2.76 nM
koff [5]: 0.000708 s⁻¹
kon [5]: 256000 M⁻¹ s⁻¹
t½ [5]: 16 min

B5: H4H12859P (antibody, human IgG4 S228P, kappa, V domains shown)
VH: QVQLVQSGAEVKKPGASVRVSCKASGYTFTDYDIHWVRQAPGHGLEWMGWINPNSGGTNYAQKFQGRVTMTRDTSISTVYMDLSRLRSDDTAVYYCARADYSSSYYYYGMDVWGQGTTVTVSS
VL: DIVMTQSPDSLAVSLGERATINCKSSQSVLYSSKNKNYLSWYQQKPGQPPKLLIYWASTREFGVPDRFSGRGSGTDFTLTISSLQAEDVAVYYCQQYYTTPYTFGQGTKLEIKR
notes: human IgG4
100 nM Ag Bound [1]: 0 RU
Max Inhibition (%); IL-2 30 pM; NK92/hIL7R/STAT3-luc [2]: 29%
100 nM Ag Bound [3]: -1 RU
100 nM Ag Bound [4]: 0 RU
binding result [4]: no binding (tested: 100 nM)
100 nM Ag Bound [5]: -1 RU

B6: H4H12863P (antibody, human IgG4 S228P, kappa, V domains shown)
VH: QVQLVESGGGVVQPGRSLRLSCTASGFTFRSYDMYWVRQAPGKGLEWVSVITYDGNNKYYADSVKGRFTISRDNSKNTLFLQMSSLRPEDTAVYYCAKRGLIWVGESFDYWGQGTLVTVSS
VL: DIQMTQSPSTLSASVGDRVTITCRASQSINSWLAWYQQKPGKAPNLLIYKASSLESGVPSRFSGSGSGTEFTLTISSLQPDDFATYYCQQYKSYSWTFGQGTKVEIKR
notes: human IgG4
100 nM Ag Bound [1]: 55 RU
Kd [1]: 4.74 nM
koff [1]: 0.000538 s⁻¹
kon [1]: 114000 M⁻¹ s⁻¹
t½ [1]: 21 min
IC50; IL-2 30 pM; NK92/hIL7R/STAT3-luc [2]: 4.3e-10 M
IC50; IL-4 250 pM; Ramos.2G6.4C10/STAT3-luc [2]: 3.6e-10 M
IC50; IL-7 50 pM; NK92/hIL7R/STAT3-luc [2]: 1.5e-09 M
IC50; IL-9 20 pM; NK92/hIL7R/STAT3-luc [2]: 4.7e-10 M
IC50; IL-21 5 pM; NK92/hIL7R/STAT3-luc [2]: > 1e-07 M
Max Inhibition (%); IL-2 30 pM; NK92/hIL7R/STAT3-luc [2]: 48%
Max Inhibition (%); IL-4 250 pM; Ramos.2G6.4C10/STAT3-luc [2]: 70%
Max Inhibition (%); IL-7 50 pM; NK92/hIL7R/STAT3-luc [2]: 42%
Max Inhibition (%); IL-9 20 pM; NK92/hIL7R/STAT3-luc [2]: 38%
Max Inhibition (%); IL-15 60 pM; NK92/hIL7R/STAT3-luc [2]: 30%
Max Inhibition (%); IL-21 5 pM; NK92/hIL7R/STAT3-luc [2]: 28%
100 nM Ag Bound [3]: -1 RU
100 nM Ag Bound [4]: 39 RU
Kd [4]: 8.69 nM
koff [4]: 0.00221 s⁻¹
kon [4]: 254000 M⁻¹ s⁻¹
t½ [4]: 5 min
100 nM Ag Bound [5]: 0 RU
